Article PMC4847777

Target: T1, RamA (His6-RamA) (Corynebacterium glutamicum (ATCC 13032?)) (UniProt Q8NML3)
T1 sequence: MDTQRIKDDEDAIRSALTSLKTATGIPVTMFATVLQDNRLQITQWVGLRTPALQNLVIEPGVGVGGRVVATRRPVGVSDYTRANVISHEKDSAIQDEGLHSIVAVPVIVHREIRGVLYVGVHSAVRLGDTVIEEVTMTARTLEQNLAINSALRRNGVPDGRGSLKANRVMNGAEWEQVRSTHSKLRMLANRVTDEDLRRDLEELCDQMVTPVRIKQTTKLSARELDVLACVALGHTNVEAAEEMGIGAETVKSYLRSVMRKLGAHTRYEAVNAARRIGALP
Test: EMSA
Conditions: 10 mM Tris, 1 mM dithioerythritol, 1 mM EDTA, 1 ug poly[d(I-C)], 10% glycerol, 20 ul, about 70 ng DNA, 20 min at room temperature, pH not stated; 2% agarose in …

TGAAGTATTGGGATCACGCCACGCAAGATCGCGGGCATTTGCTCTAAACCACACGAGCAGGGCTGTTTGAAAAGCTGTAAATGACATGACCTAAATGATTGTACTGACTGGCACTTTAGGTCATATGTCACACCGAGTGGAATAATAAAGCTTATGCCTTTGCGTAATGTTGAGGTACCCCG (double strand) [PF3]
binding: no binding
